According to article PMC10730160 (mAbs, 2023):

Tests used:
[1] = biological target: mouse CTLA-4, on CHO-K1 cells (Mus musculus, UniProt P09793); assay: ELISA
[2] = biological target: human CTLA-4, wild type, on CHO-K1 cells (human, UniProt P16410); assay: flow cytometry on cells
[3] = biological target: CTLA-4 antigen (in solution, for HDX-MS and cross-linking) (human, UniProt P16410); assay: HDX-MS
Sequence of CTLA-4 antigen (in solution, for HDX-MS and cross-linking) (P16410 36-223): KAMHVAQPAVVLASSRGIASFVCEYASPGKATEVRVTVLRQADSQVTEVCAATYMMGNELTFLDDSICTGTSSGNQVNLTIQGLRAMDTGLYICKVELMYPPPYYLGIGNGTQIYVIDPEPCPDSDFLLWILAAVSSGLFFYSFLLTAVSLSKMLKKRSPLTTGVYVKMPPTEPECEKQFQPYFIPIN

Sequence of human CTLA-4, wild type, on CHO-K1 cells (P16410 36-223): as above

B1: tremelimumab (antibody, V domains shown)
VH: QVQLVESGGGVVQPGRSLRLSCAASGFTFSSYGMHWVRQAPGKGLEWVAVIWYDGSNKYYADSVKGRFTISRDNSKNTLYLQMNSLRAEDTAVYYCARDPRGATLYYYYYGMDVWGQGTTVTVSS
VL: DIQMTQSPSSLSASVGDRVTITCRASQSINSYLDWYQQKPGKAPKLLIYAASSLQSGVPSRFSGSGSGTDFTLTISSLQPEDFATYYCQQYYSTPFTFGPGTKVEIK
B1: no binding [1]; binds [2]; binds [3].
